In this assay the target is HLA-DR(α1*0101,α1*1301) (human). Kind of assay: reference IC50 of the tracer peptide in the HLA class II competition assay.

No end group written: not given here.

In turn, TERVRLVTRHIYNREE (also: biotinylated when used as tracer) [B1 (21-36)] came in with a concentration for half-maximal inhibition (IC50) of 0.276 µM.

The values above are taken from patent publication US20080299140A1, “Immunogenic Composition and Peptide Sequences for Prevention and Treatment of an Hsv Condition” (priority 2002, published 2008).
